Measurements taken from patent US20220289816A1, “IMMUNOTHERAPY WITH B*07 RESTRICTED PEPTIDES AND COMBINATION OF PEPTIDES AGAINST CANCERS AND RELATED METHODS” (Immatics Biotechnologies GmbH, priority 2018, published 2022).

Target: HLA-B*07 (Homo sapiens, UniProt P01889)
Assay: MHC binding assay (UV-ligand exchange, ELISA of stabilized MHC complexes)
Details: peptide exchange yield on HLA-B*07, UV-ligand exchange
Method in brief: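 Peptide–MHC complexes were made by UV-ligand exchange, in which a UV-cleavable peptide is replaced by the test peptide. Exchange yield was measured by ELISA of stabilized complexes on streptavidin-coated plates, using HRP anti-β2m detection (1 h, 37 °C), TMB substrate and absorbance at 450 nm.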

Q: How did the Peptide exchange turn out when “143 (YPMIPPAQL; listed as Homo sapiens) [compound 143]” was run?
A: +++ (>50 = +++)

Q: With “261 (SPSTSRTPL; listed as Homo sapiens) [compound 261]” as the substance, how does the Peptide exchange read?
A: +++ (>50 = +++)

Q: “225 (SPIIHSIL; listed as Homo sapiens) [compound 225]” was tested. Which Peptide exchange did it give?
A: +++ (>50 = +++)

Q: For “93 (SVAIAHGVF; listed as Homo sapiens) [compound 93]”, which Peptide exchange is on record?
A: ++++ (>75% = ++++)

Q: Which Peptide exchange does the source give for “244 (VPAHLVAA; listed as Homo sapiens) [compound 244]” here?
A: ++ (>20% = ++)

Q: With “146 (SPTRGSEF; listed as Homo sapiens) [compound 146]” as the substance, how does the Peptide exchange read?
A: ++++ (>75% = ++++)

Q: How did the Peptide exchange turn out when “89 (FLIPRAGWLAGL; listed as Homo sapiens) [compound 89]” was run?
A: ++ (>20% = ++)

Q: “22 (LPQLKPAL; listed as Homo sapiens) [compound 22]” was tested. Which Peptide exchange did it give?
A: ++++ (>75% = ++++)

Q: With “283 (RPQPGWRESL; listed as Homo sapiens) [compound 283]” as the substance, how does the Peptide exchange read?
A: ++++ (>75% = ++++)

Q: How did the Peptide exchange turn out when “299 (SPFSGGPVSF; listed as Homo sapiens) [compound 299]” was run?
A: ++++ (>75% = ++++)

Q: How did the Peptide exchange turn out when “247 (SPVGVGQRL; listed as Homo sapiens) [compound 247]” was run?
A: +++ (>50 = +++)

Q: With “470 (RPNGEVKSEL; listed as Homo sapiens) [compound 470]” as the substance, how does the Peptide exchange read?
A: ++++ (>75% = ++++)

Q: Which Peptide exchange does the source give for “132 (LPRLPVGSLV; listed as Homo sapiens) [compound 132]” here?
A: ++++ (>75% = ++++)

Q: “341 (LPRSPPLKVL; listed as Homo sapiens) [compound 341]” was tested. Which Peptide exchange did it give?
A: ++++ (>75% = ++++)

Q: Which Peptide exchange does the source give for “288 (LHAMNSLSAM; listed as Homo sapiens) [compound 288]” here?
A: +++ (>50 = +++)

Q: Which Peptide exchange does the source give for “332 (SPYAGSTAF; listed as Homo sapiens) [compound 332]” here?
A: ++++ (>75% = ++++)

Q: With “62 (KPQSTISGL; listed as Homo sapiens) [compound 62]” as the substance, how does the Peptide exchange read?
A: +++ (>50 = +++)

Q: “339 (GPQRTTSV; listed as Homo sapiens) [compound 339]” was tested. Which Peptide exchange did it give?
A: +++ (>50 = +++)

Q: How did the Peptide exchange turn out when “316 (NPREPEKSL; listed as Homo sapiens) [compound 316]” was run?
A: +++ (>50 = +++)

Q: How did the Peptide exchange turn out when “336 (YPLQGPGLLSV; listed as Homo sapiens) [compound 336]” was run?
A: +++ (>50 = +++)

Q: With “162 (IPIRVDQNGAF; listed as Homo sapiens) [compound 162]” as the substance, how does the Peptide exchange read?
A: +++ (>50 = +++)

Q: “353 (KPRATWTL; listed as Homo sapiens) [compound 353]” was tested. Which Peptide exchange did it give?
A: +++ (>50 = +++)

Q: For “78 (HPSQESPTL; listed as Homo sapiens) [compound 78]”, which Peptide exchange is on record?
A: +++ (>50 = +++)

Q: “126 (MPREDAHF; listed as Homo sapiens) [compound 126]” was tested. Which Peptide exchange did it give?
A: + (>10% = +)

Q: Which Peptide exchange does the source give for “106 (APFHIDRLF; listed as Homo sapiens) [compound 106]” here?
A: +++ (>50 = +++)

Q: With “160 (IPVSHPVLTF; listed as Homo sapiens) [compound 160]” as the substance, how does the Peptide exchange read?
A: ++ (>20% = ++)

Q: With “136 (QPDHAGIFRVF; listed as Homo sapiens) [compound 136]” as the substance, how does the Peptide exchange read?
A: ++++ (>75% = ++++)

Q: How did the Peptide exchange turn out when “196 (RPSGTAGAAL; listed as Homo sapiens) [compound 196]” was run?
A: +++ (>50 = +++)

Q: “469 (LPLDTRTSI; listed as Homo sapiens) [compound 469]” was tested. Which Peptide exchange did it give?
A: ++++ (>75% = ++++)

Q: For “99 (MPVSAFTVI; listed as Homo sapiens) [compound 99]”, which Peptide exchange is on record?
A: ++++ (>75% = ++++)

Q: How did the Peptide exchange turn out when “85 (MPMQDIKMILKM; listed as Homo sapiens) [compound 85]” was run?
A: +++ (>50 = +++)

Q: “81 (IAYPSLREAAL; listed as Homo sapiens) [compound 81]” was tested. Which Peptide exchange did it give?
A: ++ (>20% = ++)

Q: Which Peptide exchange does the source give for “462 (MPLLADVRL; listed as Homo sapiens) [compound 462]” here?
A: ++++ (>75% = ++++)

Q: For “212 (VPYAAQAAL; listed as Homo sapiens) [compound 212]”, which Peptide exchange is on record?
A: ++++ (>75% = ++++)

Q: For “325 (SPRSNPVRL; listed as Homo sapiens) [compound 325]”, which Peptide exchange is on record?
A: ++++ (>75% = ++++)

Q: How did the Peptide exchange turn out when “145 (VPAQRLGLLL; listed as Homo sapiens) [compound 145]” was run?
A: +++ (>50 = +++)

Q: How did the Peptide exchange turn out when “7 (RPSQLAPATL; listed as Homo sapiens) [compound 7]” was run?
A: +++ (>50 = +++)

Q: For “230 (DVIDDIISL; listed as Homo sapiens) [compound 230]”, which Peptide exchange is on record?
A: ++++ (>75% = ++++)

Q: For “358 (APSMLRKNQL; listed as Homo sapiens) [compound 358]”, which Peptide exchange is on record?
A: +++ (>50 = +++)

Q: For “285 (RITWKGLLL; listed as Homo sapiens) [compound 285]”, which Peptide exchange is on record?
A: +++ (>50 = +++)

Q: Which Peptide exchange does the source give for “322 (RAVPVGSGL; listed as Homo sapiens) [compound 322]” here?
A: +++ (>50 = +++)

Q: “134 (VAAAARLTL; listed as Homo sapiens) [compound 134]” was tested. Which Peptide exchange did it give?
A: +++ (>50 = +++)

Q: With “369 (RPYGCVLRAA; listed as Homo sapiens) [compound 369]” as the substance, how does the Peptide exchange read?
A: ++++ (>75% = ++++)

Q: “254 (RVIQGTTTL; listed as Homo sapiens) [compound 254]” was tested. Which Peptide exchange did it give?
A: ++++ (>75% = ++++)

Q: Which Peptide exchange does the source give for “75 (HVRPQTNCI; listed as Homo sapiens) [compound 75]” here?
A: +++ (>50 = +++)

Q: With “480 (VPAAPTKAL; listed as Homo sapiens) [compound 480]” as the substance, how does the Peptide exchange read?
A: +++ (>50 = +++)

Q: How did the Peptide exchange turn out when “84 (MPMQDIKMI; listed as Homo sapiens) [compound 84]” was run?
A: +++ (>50 = +++)

Q: Which Peptide exchange does the source give for “191 (KPKAVKPKAA; listed as Homo sapiens) [compound 191]” here?
A: ++++ (>75% = ++++)

Q: “475 (IPLEIQKL; listed as Homo sapiens) [compound 475]” was tested. Which Peptide exchange did it give?
A: + (>10% = +)

Q: “73 (LPVSSPVTL; listed as Homo sapiens) [compound 73]” was tested. Which Peptide exchange did it give?
A: ++++ (>75% = ++++)

Q: How did the Peptide exchange turn out when “114 (FVPPSGPSNPM; listed as Homo sapiens) [compound 114]” was run?
A: ++ (>20% = ++)

Q: For “460 (APLMPLGKTL; listed as Homo sapiens) [compound 460]”, which Peptide exchange is on record?
A: ++++ (>75% = ++++)

Q: Which Peptide exchange does the source give for “267 (MPVPGILL; listed as Homo sapiens) [compound 267]” here?
A: +++ (>50 = +++)

Q: With “310 (SPGWAQTQL; listed as Homo sapiens) [compound 310]” as the substance, how does the Peptide exchange read?
A: ++++ (>75% = ++++)

Q: For “197 (RPSGTAGAALLA; listed as Homo sapiens) [compound 197]”, which Peptide exchange is on record?
A: ++ (>20% = ++)

Q: “324 (LPAPLRISL; listed as Homo sapiens) [compound 324]” was tested. Which Peptide exchange did it give?
A: ++++ (>75% = ++++)

Q: For “226 (APGGSSRSSL; listed as Homo sapiens) [compound 226]”, which Peptide exchange is on record?
A: +++ (>50 = +++)

Q: With “372 (SPSSASLTL; listed as Homo sapiens) [compound 372]” as the substance, how does the Peptide exchange read?
A: ++++ (>75% = ++++)

Q: For “497 (YVVKPLHPF; listed as Homo sapiens) [compound 497]”, which Peptide exchange is on record?
A: +++ (>50 = +++)

Q: How did the Peptide exchange turn out when “216 (LPWEQNEQV; listed as Homo sapiens) [compound 216]” was run?
A: +++ (>50 = +++)

Q: “199 (SPFWIHQA; listed as Homo sapiens) [compound 199]” was tested. Which Peptide exchange did it give?
A: ++ (>20% = ++)

Q: “234 (HPRAPGEQQRL; listed as Homo sapiens) [compound 234]” was tested. Which Peptide exchange did it give?
A: +++ (>50 = +++)

Q: Which Peptide exchange does the source give for “490 (APRGPAQGEAA; listed as Homo sapiens) [compound 490]” here?
A: ++++ (>75% = ++++)

Q: With “250 (APAAPAAVPS; listed as Homo sapiens) [compound 250]” as the substance, how does the Peptide exchange read?
A: ++ (>20% = ++)

Q: Which Peptide exchange does the source give for “207 (VPSDITTAF; listed as Homo sapiens) [compound 207]” here?
A: +++ (>50 = +++)

Q: Which Peptide exchange does the source give for “185 (RPVLTASSF; listed as Homo sapiens) [compound 185]” here?
A: ++++ (>75% = ++++)

Q: Which Peptide exchange does the source give for “202 (SPSREASAL; listed as Homo sapiens) [compound 202]” here?
A: +++ (>50 = +++)

Q: With “20 (MVLGIGPVL; listed as Homo sapiens) [compound 20]” as the substance, how does the Peptide exchange read?
A: ++++ (>75% = ++++)

Q: Which Peptide exchange does the source give for “354 (APAKDARASL; listed as Homo sapiens) [compound 354]” here?
A: ++++ (>75% = ++++)

Q: Which Peptide exchange does the source give for “493 (LPLQQYKLV; listed as Homo sapiens) [compound 493]” here?
A: + (>10% = +)

Q: How did the Peptide exchange turn out when “52 (KEDNPSGHTYTL; listed as Homo sapiens) [compound 52]” was run?
A: +++ (>50 = +++)

Q: “298 (RVLLRWISL; listed as Homo sapiens) [compound 298]” was tested. Which Peptide exchange did it give?
A: +++ (>50 = +++)

Q: Which Peptide exchange does the source give for “189 (QPQCSTHIL; listed as Homo sapiens) [compound 189]” here?
A: ++++ (>75% = ++++)

Q: With “119 (KATEYVHSL; listed as Homo sapiens) [compound 119]” as the substance, how does the Peptide exchange read?
A: + (>10% = +)

Q: Which Peptide exchange does the source give for “66 (LPMTVISVL; listed as Homo sapiens) [compound 66]” here?
A: ++++ (>75% = ++++)

Q: With “273 (TDTPSTTPTTI; listed as Homo sapiens) [compound 273]” as the substance, how does the Peptide exchange read?
A: ++ (>20% = ++)

Q: For “115 (KTKSLAQQL; listed as Homo sapiens) [compound 115]”, which Peptide exchange is on record?
A: +++ (>50 = +++)

Q: How did the Peptide exchange turn out when “135 (MPRLLRLSL; listed as Homo sapiens) [compound 135]” was run?
A: +++ (>50 = +++)

Q: “488 (LPLGGLPLLI; listed as Homo sapiens) [compound 488]” was tested. Which Peptide exchange did it give?
A: +++ (>50 = +++)

Q: Which Peptide exchange does the source give for “262 (SPSTSRTPLLSSL; listed as Homo sapiens) [compound 262]” here?
A: ++++ (>75% = ++++)

Q: How did the Peptide exchange turn out when “494 (LPLRAVNLNL; listed as Homo sapiens) [compound 494]” was run?
A: +++ (>50 = +++)
